From patent US20090324609A1

Target: PD-1 receptor on T cells of anti-CD3-activated Balb/c splenocytes (mouse) (UniProt Q02242)
Assay: cell-based or functional assay

UniProt Q02242, sequence (Q02242 25-288): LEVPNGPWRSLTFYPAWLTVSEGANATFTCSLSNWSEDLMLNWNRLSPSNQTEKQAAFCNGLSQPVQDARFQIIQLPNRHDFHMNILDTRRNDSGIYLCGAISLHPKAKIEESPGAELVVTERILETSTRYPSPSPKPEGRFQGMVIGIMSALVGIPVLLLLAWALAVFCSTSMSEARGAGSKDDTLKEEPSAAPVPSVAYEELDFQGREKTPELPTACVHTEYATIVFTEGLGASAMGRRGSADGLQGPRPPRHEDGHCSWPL

Substance: PD-L1 (Programmed death ligand 1) on the surface of wildtype C57BL/6 mouse mesenchymal stem cells (from UniProt Q9EP73 19-290)
- Fold suppression of T cell proliferation by wildtype B6 MSCs (CFSE, anti-CD3-activated Balb/c splenocytes): > 5 fold
- Fold suppression of T cell proliferation when PD-L1 is absent from the MSCs (B6 PD-L1-/- MSCs; CFSE, anti-CD3-activated Balb/c splenocytes): < 2 fold
- T cell proliferation (CFSE-labelled Balb/c splenocytes activated with anti-CD3, flow cytometry); percent proliferating with wildtype B6 MSCs, against 87% without MSCs: 16%
